The record followed here is US20090155164A1 (Amgen, published 2009).

In test [1] the target is T1, monomeric human c-fms (residues 1-512)-pHis (human, UniProt P07333 20-512).
T1 construct: Construct stated as residues 1-512; signal stated as amino acids 1-19 and left out; also called human c-fms (1-512).pHIS; monomeric c-fms
The experiment in a line: Biacore (summary table). How it is done:
(§1) Anti-c-fms 1.2 or 1.2 SM at 0.25 μg/ml was injected over goat anti-human IgG, Fcγ in one flow cell for 2 minutes at 10 μl/min to obtain a surface density of ˜47 RUs. Another flow cell with goat anti-human IgG, Fcγ alone was used as a reference surface. Each assay started with ten cycles of buffer as the analyte to stabilize the signal. […] Each complex was allowed to associate for 2 minutes, and dissociate for 5 minutes. The surfaces were regenerated after each c-fms or buffer injection with a 30-second pulse of 10 mM glycine HCl, pH 1.5 at 100 μl/min, followed by a 30-second injection of buffer.
(§2) Other anti-c-fms antibodies were tested in a similar manner, but changes were made to the protocol to account for differences in binding characteristics.
(§3) Data was double referenced by subtracting the reference surface responses to remove bulk refractive index changes, and then subtracting the averaged buffer blank response to remove systematic artifacts from the experimental flow cells.

Test [2] has as its target T1, monomeric human c-fms (residues …). Kind of test: Biacore 3000, 25 C; mAb captured on goat anti-human IgG Fc, monomeric c-fms(1-512)-pHis analyte, 1:1 fit. The procedure: as §1, §2, §3
Test [3] addresses T2, human c-fms, full length, on cells (human, UniProt P07333 20-972).
T2 construct: whole, on cells; also called CSF-1R
The experiment in a line: inhibition of 125I-CSF-1 binding to AML-5 cells; competitor: 125I-CSF-1 (summary table). The procedure: (§4) A saturation radioligand binding experiment was performed in conjunction with each inhibition assay in order to determine both a KD and […] for hCSF-1 binding to c-fms expressed on the surface of AML-5 cells. Mixtures were set up in 96-well round-bottom microtiter plates with total volumes of 150 μl/well. All reagents were diluted in binding media containing 0.2% sodium azide and experiments were conducted at 4° C. to minimize potential receptor internalization and shedding.
Both assays were incubated at 4° C. on a miniorbital shaker for 4 hours, the length of time needed to reach equilibrium as determined in time course experiments. Two 60 μl aliquots of each incubation mixture were transferred to chilled 400 μl polyethylene centrifuge tubes containing 200 μl phthalate oil and spun for 1.5 minutes in a 4° C. tabletop microfuge (Sorvall,) at 9615×g to separate cell associated ¹²⁵I-hCSF-1 from free ¹²⁵I-hCSF-1. The oil tubes were cut, and each cell pellet and supernatant collected in individual 12×75 mm glass tubes and loaded on a COBRA gamma counter (Packard Instrument Company) for cpm measurements. Cpm from duplicate aliquots taken from each well were averaged for analysis.
Mean K₁ values from 2 experiments were reported (see, TABLE 13).

Test [4] deals with T3, cynomolgus monkey c-fms on primary bone marrow cells (cynomolgus monkey). The experiment in a line: cell-based or functional assay.
The target of test [5] is T2, human c-fms, full length, on cells. The experiment in a line: cell-based or functional assay.
Test [6] has the same target. Kind of test: inhibition of 125I-hCSF-1 binding to AML-5 cells, 4 C; competitor: 125I-hCSF-1. The procedure:
as §4
For the saturation binding assay, ¹²⁵I-hCSF-1 was serially diluted 2-fold, starting at a concentration of ˜1.7 nM and going out 12 wells to a concentration of ˜1.5 pM. Nonspecific binding was measured at a single concentration of ¹²⁵I-hCSF-1 (˜80 pM, in triplicate) in the presence of a 1,000-fold molar excess of unlabeled hCSF-1, and assumed to be a linear function of the concentration of radiolabeled hCSF-1 present.

Test [7] has as its target T1, monomeric human c-fms (residues …). Kind of test: Biacore, monomeric c-fms. How it is done:
The binding affinities of the somatic mutation corrected antibodies to monomeric c-fms protein were measured by surface plasmon resonance using a Biacore 3000 instrument.
The affinity of human c-fms (1-512). pHIS (Amgen) for the anti-c-fms mAbs was measured by Biacore. Experiments were conducted at 25° C. using a Biacore 3000 instrument (Biacore AB) equipped with a CM4 sensor chip. Sensor chips, amine coupling reagents (EDC (1-ethyl-3(3-dimethylaminopropyl)-carbodiimide hydrochloride), NHS (N-hydroxysuccinimide), and ethanolamine-HCl, pH 8.5), 10 mM sodium acetate, pH 5.5, HBS-EP (0.01 M HEPES pH 7.4, 0.15 M NaCl, 3 mM EDTA, 0.005% v/v Surfactant P20), and 10 mM glycine-HCl, pH 1.5 were purchased from Biacore AB. Bovine serum albumin (BSA, Bovuminar Standard Powder) was purchased from Serological Corporation. AffiniPure Goat Anti-Human IgG, Fcγ Fragment Specific was purchased from Jackson ImmunoResearch Laboratories.
as §2
In general terms: SPR reads the build-up and loss of mass on a sensor chip optically.

Test [8] deals with T2, human c-fms, full length, on cells. Kind of test: cell-based or functional assay. The source holds these as a separate data set.
The target of test [9] is T3, cynomolgus monkey c-fms on primary bone …. The experiment in a line: cell-based or functional assay. The source holds these as a separate data set.
Test [10] deals with T2, human c-fms, full length, on cells. Kind of test: cell-based or functional assay. This is another data set of the same source.
Test [11] addresses T4, avidin-c-fms Ig-like 2 domain only fusion protein (chicken; human, UniProt P07333 85-223).
T4 construct: Captured on biotin beads; also called Ig-like loop 2 alone (TEPG-AQIV); not shown: chicken avidin, N-terminal fusion partner from pCEP4-Avidin(N)
The experiment in a line: FACS, biotin beads loaded with the avidin fusion protein; per the sheet's title 1 µg/mL anti C-FMS and 1 µg/mL mouse anti-human IgG Fc-gamma FITC secondary.

The target of test [12] is T5, avidin-c-fms Ig-like 1 domain fusion protein (chicken; human, UniProt P07333 20-126).
T5 construct: Joined through an XhoI site; Captured on biotin beads; also called Ig1 construct; Ig-like loop 1 (IPVI-ALLP); not shown: chicken avidin, N-terminal fusion partner from pCEP4-Avidin(N)
T5 sequence (P07333 20-126 limits assumed): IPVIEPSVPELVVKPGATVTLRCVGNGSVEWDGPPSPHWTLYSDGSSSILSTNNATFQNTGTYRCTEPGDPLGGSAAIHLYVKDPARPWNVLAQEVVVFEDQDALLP
The experiment in a line: FACS, biotin beads coated with the avidin fusion protein, FITC-2.36 without competitor. (A flow cytometer gives signals particle by particle.)

The target of test [13] is T5, avidin-c-fms Ig-like 1 domain fusion …. The experiment in a line: FACS, biotin beads coated with the avidin fusion protein, FITC-1.2 without competitor.

T1 sequence (P07333 20-512): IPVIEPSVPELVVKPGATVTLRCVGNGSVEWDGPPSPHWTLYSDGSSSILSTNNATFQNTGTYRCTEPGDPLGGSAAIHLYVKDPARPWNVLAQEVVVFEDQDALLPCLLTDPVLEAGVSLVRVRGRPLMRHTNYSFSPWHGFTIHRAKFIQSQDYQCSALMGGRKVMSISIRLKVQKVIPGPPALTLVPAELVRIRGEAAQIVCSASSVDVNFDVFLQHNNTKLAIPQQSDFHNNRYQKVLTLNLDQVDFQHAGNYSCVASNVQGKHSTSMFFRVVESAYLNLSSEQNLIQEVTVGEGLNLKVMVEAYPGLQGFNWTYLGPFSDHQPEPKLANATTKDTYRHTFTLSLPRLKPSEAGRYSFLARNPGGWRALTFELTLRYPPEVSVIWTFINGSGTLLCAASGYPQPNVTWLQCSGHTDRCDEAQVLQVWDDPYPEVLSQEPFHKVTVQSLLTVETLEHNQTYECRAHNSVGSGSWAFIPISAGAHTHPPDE
T2 sequence (P07333 20-972): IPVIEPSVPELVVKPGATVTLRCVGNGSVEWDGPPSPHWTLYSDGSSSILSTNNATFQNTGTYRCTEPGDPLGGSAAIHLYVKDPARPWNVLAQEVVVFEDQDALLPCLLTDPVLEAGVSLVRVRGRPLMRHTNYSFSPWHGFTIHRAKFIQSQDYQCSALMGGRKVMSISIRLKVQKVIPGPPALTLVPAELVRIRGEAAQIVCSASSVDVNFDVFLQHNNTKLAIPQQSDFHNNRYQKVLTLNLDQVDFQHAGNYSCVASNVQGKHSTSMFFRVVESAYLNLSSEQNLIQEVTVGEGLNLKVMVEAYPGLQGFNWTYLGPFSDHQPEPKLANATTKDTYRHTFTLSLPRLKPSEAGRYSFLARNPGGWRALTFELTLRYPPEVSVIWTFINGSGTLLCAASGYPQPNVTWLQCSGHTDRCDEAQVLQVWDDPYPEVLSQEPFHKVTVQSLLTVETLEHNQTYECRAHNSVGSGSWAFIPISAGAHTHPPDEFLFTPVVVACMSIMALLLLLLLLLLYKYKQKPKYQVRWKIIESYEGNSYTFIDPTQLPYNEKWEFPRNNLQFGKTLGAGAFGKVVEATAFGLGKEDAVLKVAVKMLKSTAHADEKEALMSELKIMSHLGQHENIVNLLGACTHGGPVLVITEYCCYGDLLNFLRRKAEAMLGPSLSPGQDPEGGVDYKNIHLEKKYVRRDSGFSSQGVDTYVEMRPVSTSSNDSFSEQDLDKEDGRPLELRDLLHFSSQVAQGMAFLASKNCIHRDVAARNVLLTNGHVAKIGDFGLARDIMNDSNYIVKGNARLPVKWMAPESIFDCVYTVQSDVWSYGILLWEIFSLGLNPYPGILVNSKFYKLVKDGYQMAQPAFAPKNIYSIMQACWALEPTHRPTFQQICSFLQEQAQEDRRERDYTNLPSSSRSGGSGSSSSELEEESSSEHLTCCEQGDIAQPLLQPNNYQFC
T4 sequence (P07333 85-223 limits assumed): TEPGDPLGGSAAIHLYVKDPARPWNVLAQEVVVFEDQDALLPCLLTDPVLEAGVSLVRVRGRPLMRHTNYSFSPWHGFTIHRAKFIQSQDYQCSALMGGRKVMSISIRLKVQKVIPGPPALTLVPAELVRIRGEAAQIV

B1: anti-c-fms IgG2 clone 1.109 (parent form, PT) (antibody, V domains shown)
VH: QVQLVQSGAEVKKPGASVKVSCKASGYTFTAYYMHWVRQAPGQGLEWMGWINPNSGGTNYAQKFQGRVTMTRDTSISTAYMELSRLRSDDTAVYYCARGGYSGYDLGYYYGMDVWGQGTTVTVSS
VL: DIQMTQSPSSLSASVGDRVTITCQASQNISNFLDWYQQKPGKAPNLLIYDASDLDPGVPSRFSGSGSGTDFTFTISSLQPEDIATYYCQQYVSLPLTFGGGTKVEIKR
modifications: N-linked glycosylation site at Asn-28 in CDR1, reported as likely occupied; N-terminal glutamine cyclized to pyroglutamic acid; C-terminal lysine absent
notes: Recombinant human IgG2 kappa from COS/PKB cells (hybridoma was IgG1)
As usually defined, the Kd is the equilibrium constant for the complex coming apart. By koff is commonly meant a measure of how fast the partners let go of each other. In general, kon refers to the second-order rate constant of association. As usually defined, the Ki is the equilibrium dissociation constant of an inhibitor or competing ligand from its target. Regarding B1, the Kd in test [1], in [2] and in test [7] was 0.051 nM throughout. In addition, the koff in [2] was 0.000129 s⁻¹. In test [2], this molecule came in with a kon of 2.54e+06 M⁻¹ s⁻¹. Besides, the Ki in [3] and in [6] was 0.0135 nM each time. In addition, the “Cynomolgus Bone Marrow Proliferation IC50” value in test [4] worked out at 0.016 nM. The “AML-5 proliferation IC50” value in test [5] stood at 0.027 nM. For the same molecule, the “antibody concentration that prevented CSF-1-induced pTyr/c-fms, 293T/c-fms cells” value in test [8] was no less than 0.1 µg/ml. For the same molecule, in test [8], the “antibody concentration that reduced CSF-1-induced pTyr/c-fms to background, 293T/c-fms cells” value is 0.1 µg/ml. For the same molecule, the “Cynomolgus bone marrow bioassay IC50” value in test [9] came to 0.016 nM. Also, the “AML-5 bioassay IC50” value in [10] came out at 0.027 nM. Moreover, the binding result in test [11] is listed as “no binding (tested: 1 µg/mL)”.

B2: anti-c-fms IgG2 clone 2.360 (parent form, PT) (antibody, V domains shown)
VH: QVQLVQSGAEVKKPGASVKVSCKVSGYTLTELSMHWVRQAPGKGLEWMGGFDPEDGETIYAQKFQGRVTMTEDTSTDTVYMELSSLRSEDTAVYYCATGVMITFGGVIVGHSYYGMDVWGQGTTVTVSS
VL: DIQMTQSPSSLSASVGDRVTITCRASQGINNYLAWYQQKPGKVPQLLIYVASTLQSGVPSRFSGSGSGTDFTLTISSLQPEDVATYYCQKYNSGPFTFGPGTKVDIKR
modifications: N-terminal glutamine cyclized to pyroglutamic acid; C-terminal lysine absent
notes: Recombinant human IgG2 kappa from COS/PKB cells
For B2, the Kd in [1], in test [2] and in [7] was 0.535 nM each time. In test [2], this molecule registered a koff of 0.000667 s⁻¹. In test [2], this molecule returned a kon of 1.25e+06 M⁻¹ s⁻¹. Also, the Ki in test [3] and in [6] was roughly 0.16 nM in each case. For the same molecule, in test [4], the “Cynomolgus Bone Marrow Proliferation IC50” value was determined as 0.067 nM. For the same molecule, the “AML-5 proliferation IC50” value in test [5] is 0.06 nM. For the same molecule, the “antibody concentration that reduced CSF-1-induced pTyr/c-fms to background, 293T/c-fms cells” value in test [8] is 1 µg/ml. Also, the “Cynomolgus bone marrow bioassay IC50” value in test [9] came out at 0.067 nM. Besides, the “AML-5 bioassay IC50” value in test [10] was 0.06 nM. In addition, the figures for the binding result in test [12] and in [11] were “no binding (tested: 1 µg/ml)” and “no binding (tested: 1 µg/mL)”, respectively.

B3: anti-c-fms IgG2 clone 1.2 (parent form, PT) (antibody, V domains shown)
VH: QVQLVQSGAEVKKPGASVKVSCKASGYTFTSYGISWVRQAPGQGLEWMGWISAYNGNTNYAQKLQGRVTMTTDTSTSTAYMELRSLRSDDTAVYYCARESWFGEVFFDYWGQGTLVTVSS
VL: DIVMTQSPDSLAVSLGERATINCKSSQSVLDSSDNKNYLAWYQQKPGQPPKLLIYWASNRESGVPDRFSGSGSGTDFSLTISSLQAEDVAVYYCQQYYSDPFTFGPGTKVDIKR
modifications: N-terminal glutamine cyclized to pyroglutamic acid; C-terminal lysine absent
notes: Recombinant human IgG2 kappa from COS/PKB cells (hybridoma was IgG1); also called 1.2.1; Clone 1.2 PT
With B3, the Kd in test [1], in test [2] and in test [7] was 0.516 nM in each case. This molecule also gave a koff in [2] of 0.00198 s⁻¹. Also, the kon in test [2] worked out at 3.84e+06 M⁻¹ s⁻¹. Moreover, the Ki in test [3] and in test [6] was 0.0085 nM throughout. Also, the “Cynomolgus Bone Marrow Proliferation IC50” value in test [4] was 0.078 nM. Moreover, in test [5], the “AML-5 proliferation IC50” value was determined as 0.027 nM. The binding result in [13] is listed as “no binding (tested: 1 µg/ml)”; in test [11], “no binding (tested: 1 µg/mL)”. Further, the “antibody concentration that prevented CSF-1-induced pTyr/c-fms, 293T/c-fms cells” value in test [8] was no less than 0.1 µg/ml. Moreover, in test [8], the “antibody concentration that reduced CSF-1-induced pTyr/c-fms to background, 293T/c-fms cells” value stood at 0.1 µg/ml. In addition, the “Cynomolgus bone marrow bioassay IC50” value in test [9] was 0.078 nM. The “AML-5 bioassay IC50” value in [10] was 0.027 nM.
